The data set in a line: collision cross section of unmodified peptide (TIMS, N2, iRT-aligned); higher = larger / more extended gas-phase ion. An outline of the steps: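 Synthetic peptide pools (~100 fmol/µL in 2% acetonitrile/0.1% formic acid, iRT standard spiked 1:40) were separated on a 120-min nanoflow C18 gradient at 60 °C. They were analysed on a timsTOF Pro/HT (dda-PASEF, nitrogen, ~2.4 mbar) and identified with MaxQuant. 1/K0 was calibrated with three reference ions and aligned run-wise to the median iRT peptide deviation. Collision cross section came from the Mason-Schamp equation, averaging 1–3 technical replicates of the most abundant feature per charge state.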

± gives the standard deviation.

In the case of GFCFITYTDEEPVKK, the collision cross section by setting is: (charge state: 2) 461.17 ± 2.5 Å²; (charge state: 3) 509.46 ± 2.1 Å².
For GEVGAGAGPGAQAGPSAKR, in that order: 436.7 ± 2.1 Å² and 469.26 ± 5.9 Å².
In the case of HLRGHGPQPPLR, the collision cross section reads like this: (charge state: 2) 396.64 Å²; (charge state: 3) 492.83 ± 0.94 Å².
Turning to LGNTISSLFGGGTTPDAK, the collision cross section (charge state: 2) stood at 447.17 ± 0.13 Å².
With PRTPTAPAVNLAGAR, the collision cross section (charge state: 2) was found to be 406.96 ± 1.8 Å² and the collision cross section (charge state: 3) came out at 484.37 ± 1.2 Å².
As for AEGYEVAHGGR, the collision cross section by setting is: (charge state: 2) 358.34 ± 0.55 Å²; (charge state: 3) 438.28 ± 0.89 Å².
As to GLPGPPGPQGESR, for the setting “charge state: 2”, the collision cross section was 356.03 ± 0.79 Å².
Take ASAISIKLGSSK: the collision cross section by setting is: (charge state: 2) 373.11 ± 0.93 Å²; (charge state: 3) 446.31 ± 5.8 Å².
Turning to HHAAYVNNLNVTEEK, the collision cross section amounted to 444.13 ± 2.1 Å² (charge state: 2) and 494.31 ± 0.87 Å² (charge state: 3).
For LEEVTGKLQVAR, in that order: 400.35 ± 5.3 Å² and 475.59 ± 4.3 Å².
For HELQANCYEEVKDR, in that order: 443.76 ± 2.4 Å² and 527.87 ± 1.3 Å².
Consider TPNLYIYSKK, for which the collision cross section reads like this: (charge state: 2) 381.12 ± 1.4 Å²; (charge state: 3) 430.18 ± 4.5 Å².
Turning to LGPNDQYK, where the note is “charge state: 2”, the collision cross section is reported as 325.88 ± 0.73 Å².
In the case of YTQVGPDHNR, the collision cross section was found to be 354.55 ± 0.7 Å² (charge state: 2) and 423.12 ± 2 Å² (charge state: 3).
Turning to ATAVVDGAFK, the collision cross section (charge state: 2) came to 329.06 ± 0.69 Å².
In the case of HVSPVTPPR, the collision cross section (charge state: 2) is 327.76 ± 0.64 Å².
SRGAIISQYYNR: the collision cross section (charge state: 2) came out at 400.77 ± 1.6 Å² and the collision cross section (charge state: 3) is 465.8 ± 0.66 Å².
For the substance PSVGSQSNQAGQGKR, the collision cross section is, setting by setting: (charge state: 2) 422.59 ± 2.3 Å²; (charge state: 3) 465.3 ± 4.2 Å².
For SALAAAQTQVAEYK, for the setting “charge state: 2”, the collision cross section worked out at 422.48 ± 1.1 Å².
For DLGKFQVATDALK, the collision cross section amounted to 413.55 ± 3.7 Å² (charge state: 2) and 498.11 ± 6.1 Å² (charge state: 3).
The corresponding values for IHPEGPPLK are 335.79 ± 0.58 Å² and 438.33 ± 2 Å².
For SGRGGNFGFGDSR, in that order: 375.82 ± 0.59 Å² and 452.15 ± 2.9 Å².
For GEPGQGLRGLQGPPGK, in that order: 417.18 ± 1.2 Å² and 443.35 ± 0.85 Å².
For VFIGNLNTLVVKK, the collision cross section came to 421.66 ± 1.2 Å² (charge state: 2) and 475.82 ± 2 Å² (charge state: 3).
The corresponding values for DTPTSAGPNSFNKGK are 410.87 ± 2 Å² and 465.77 ± 5.4 Å².
Take GLPGEPGPR: the collision cross section (charge state: 2) is reported as 309.4 ± 0.22 Å².
For the substance VYSGHQGR, the collision cross section by setting is: (charge state: 2) 325.3 ± 0.79 Å²; (charge state: 3) 409 ± 1.1 Å².
With ESISVSSEQLAQFR, the collision cross section (charge state: 2) is 416.66 ± 2.8 Å².
The same measure, in the same setting: then FSPPSSSLQPGK, with 371.43 ± 0.67 Å²; and AIEINPDSAQPYK, with 394.83 ± 1.7 Å².
As to YVHADAPTNK, the collision cross section runs as follows: (charge state: 2) 347.85 ± 2.8 Å²; (charge state: 3) 415.08 ± 2 Å².
Substance MFLSFPTTK came in with a collision cross section (charge state: 2) of 348.96 ± 0.14 Å².
For SLYASSPGGVYATR, the collision cross section (charge state: 2) is given as 405.12 ± 0.66 Å² and the collision cross section (charge state: 3) amounted to 482.72 ± 0.22 Å².
SFSASGAQIVSR yielded a collision cross section (charge state: 2) of 366.99 ± 0.14 Å².
Same read-out and setting: then LDYSDFQIVK, with 368.99 ± 0.6 Å².
With GEQGEPGAPGIRTGIQGLK, the collision cross section (charge state: 2) amounted to 452.7 ± 0.99 Å² and the collision cross section (charge state: 3) is 505.34 ± 2.1 Å².
For GAPGGRGAQLSVPSPAR, in that order: 428.52 Å² and 492.17 ± 0.93 Å².
As to LSSETYSQAK, the collision cross section (charge state: 2) amounted to 348.96 ± 1.1 Å².
Same read-out and setting: the figure for RGPPGAK is 308.91 ± 1.4 Å²; for ASPPLFQSR it is 339.74 ± 0.58 Å².
On the same count and under the same terms, the figure for FNALFAQGNYSEAAK is 435.05 ± 0.49 Å².
Consider PGLKGEQGEPGAPGIR, for which the collision cross section reads like this: (charge state: 2) 410.66 ± 1.2 Å²; (charge state: 3) 510.99 ± 0.86 Å².
For LGHYATQLQK, the collision cross section runs as follows: (charge state: 2) 363.47 ± 0.14 Å²; (charge state: 3) 429.28 ± 0.3 Å².
The corresponding values for VRLQTTLR are 347.32 ± 0.41 Å² and 442.81 ± 6.5 Å².
The corresponding values for LRQQLQAK are 346.98 ± 0.88 Å² and 414.5 ± 11 Å².
In the case of ASCLYGQLPK, under “charge state: 2”, the collision cross section was 363.85 ± 0.6 Å².
As to SNEEGSEEKGPEVR, the collision cross section (charge state: 2) is given as 397.33 ± 0.57 Å² and the collision cross section (charge state: 3) is given as 477.66 ± 4.4 Å².
Take APEYLHR: the collision cross section (charge state: 2) is reported as 313.96 ± 0.73 Å².
As for PAVTAAPK, for the setting “charge state: 2”, the collision cross section was determined as 290.54 ± 0.15 Å².
For DYQPGITFIVVQKR, the collision cross section was determined as 447.74 ± 2 Å² (charge state: 2) and 520.02 ± 0.34 Å² (charge state: 3).
For KITESVAETAQTIK, in that order: 420.69 ± 0.66 Å² and 480.58 ± 0.22 Å².
Turning to TTSYPTPRPYPKPAPSSGK, the collision cross section (charge state: 3) is 522.76 ± 0.86 Å².
The substance DYSQPTAAATVQDIK displayed a collision cross section (charge state: 2) of 421.28 ± 0.57 Å².
Still for that read-out and setting: the figure for FYTEDSPGLK is 352.82 ± 0.55 Å²; for GHYTIGK it is 315.37 ± 1.9 Å².
Take GLATFPSRGAK: the collision cross section was 368.08 ± 0.52 Å² (charge state: 2) and 445.97 ± 5.5 Å² (charge state: 3).
For VQGGALEDSQLVAGVAFKK, in that order: 499.26 ± 4.6 Å² and 546.92 ± 0.83 Å².
For GLPGEPGPRGLLGPK, in that order: 406.63 ± 0.39 Å² and 459.1 ± 1.2 Å².
In the case of ANEKTESSSAQQVAVSR, the collision cross section reads like this: (charge state: 2) 440.94 ± 1.7 Å²; (charge state: 3) 497.75 ± 27 Å².
For PGPVGPPGSGGLK, the collision cross section (charge state: 2) worked out at 353.19 ± 0.41 Å².
The same measure, in the same setting: the figure for LVFDEYLK is 354.45 ± 0.59 Å².
In turn, ELANFDPSRPGPPSGR had a collision cross section (charge state: 3) of 494.4 ± 1 Å².
On to VQFAPEKPGPQPSAETTR, for which the collision cross section (charge state: 3) turned out to be 507.38 ± 9.7 Å².
On to YADLTEDQLPSCESLK, for which, where the note is “charge state: 2”, the collision cross section worked out at 447.81 ± 1 Å².
On the same count and under the same terms, the figure for VMVAPISGSVTTGTK is 396.94 ± 0.14 Å².
As for GADFLVTEVENGGSLGSKK, the collision cross section turned out to be 494.06 ± 6.8 Å² (charge state: 2) and 535.68 ± 1.1 Å² (charge state: 3).
Take ITASLCDLKSR: the collision cross section runs as follows: (charge state: 2) 397.44 ± 4.9 Å²; (charge state: 3) 460.65 ± 3.9 Å².
The corresponding values for AYDATHLVK are 353.02 ± 0.48 Å² and 420.22 ± 1.4 Å².
LSFGLEDEPLETATK: the collision cross section is, setting by setting: (charge state: 2) 426.44 ± 0.65 Å²; (charge state: 3) 496.99 ± 0.21 Å².
For GPPPSYGGSSR, the collision cross section (charge state: 2) is given as 337.81 ± 0.59 Å².
Still for that read-out and setting: then LGGDLGTYVINK, with 369.28 ± 0.16 Å².
With HIGFVYHPTK, the collision cross section by setting is: (charge state: 2) 378.19 ± 1.1 Å²; (charge state: 3) 450.25 ± 1.7 Å².
In turn, GDNGSVGEPGPK had a collision cross section (charge state: 2) of 342.97 ± 0.86 Å².
For TEVLSPNSKVESK, the collision cross section was 418.58 ± 2.2 Å² (charge state: 2) and 483.46 ± 5.8 Å² (charge state: 3).
Take DAEAAEATAEGALKAEK: the collision cross section reads like this: (charge state: 2) 458.36 ± 2.4 Å²; (charge state: 3) 544.24 ± 2.9 Å².
The corresponding values for ITGKNQVTATK are 365.6 ± 0.91 Å² and 448.51 ± 5 Å².
Regarding GERGFPGYPGPK, the collision cross section turned out to be 366.2 ± 1.3 Å² (charge state: 2) and 460.83 ± 0.86 Å² (charge state: 3).
The corresponding values for PGPQPSAETTR are 342.87 ± 0.58 Å² and 415.85 ± 2 Å².
The corresponding values for LAEEENKAK are 348.48 ± 1.2 Å² and 421.19 ± 4.7 Å².
Substance DLEEAEEYK had a collision cross section (charge state: 2) of 358.42 ± 0.55 Å².
Regarding IVEKYGYTHLSAGELLR, the collision cross section reads like this: (charge state: 2) 489.48 ± 3 Å²; (charge state: 3) 538.24 ± 2.8 Å².
With TTGFYSGFSEVAEKR, the collision cross section is listed as 454.17 ± 3.2 Å² (charge state: 2) and 530.82 ± 1.6 Å² (charge state: 3).
The corresponding values for TVSKVDDFLANEAK are 420.02 ± 1.7 Å² and 500.46 ± 2.4 Å².
The corresponding values for LDEKENLSAK are 363.87 ± 1.4 Å² and 445.27 ± 6.6 Å².
Take YEEIVKEVSTYIK: the collision cross section is, setting by setting: (charge state: 2) 443.47 ± 2.8 Å²; (charge state: 3) 492.72 ± 2.3 Å².
For SEASSEFAKK, in that order: 351.87 ± 0.55 Å² and 422.04 ± 3.9 Å².
